{"source": "patent US7666644B2", "about": "“Glyphosate-N-acetyltransferase (GAT) genes” (Verdia, Inc., priority 2004, dated 2010)", "key": {"[1]": {"experiment": "GAT activity with substrate glyphosate (amino acid substrate study, DTNB)", "assay_type": "biochemical", "conditions": "Substrate Glyph, relative to 401", "procedure": "(§1) GAT activity of several GAT polypeptides of the present invention was evaluated with respect to a number of amino acid substrates. The GAT polypeptide, AcCoA and amino substrate were incubated in 25 mM Hepes, pH 6.8, 10% ethylene glycol in the wells of a 96-well polystyrene plate. After 30 minutes, the reactions were stopped by the addition of 30 μl of 10 mM 5,5′-dithiobis-2-nitrobenzoate (DTNB) in 500 mM Tris, pH 7.5. After 2 minutes, absorbance was read at 412 nm in a Spectramax Plus plate reader (Molecular Devices, Sunnyvale, Calif.)."}, "[2]": {"experiment": "GAT activity with substrate L-aspartate (DTNB)", "assay_type": "biochemical", "conditions": "for kcat/KM % of glyph: Substrate Aspartate", "procedure": "as §1"}, "[3]": {"experiment": "GAT activity with substrate L-serine (DTNB)", "assay_type": "biochemical", "conditions": "for kcat/KM % of glyph: Substrate Serine", "procedure": "as §1"}, "[4]": {"experiment": "Transfer of the propionyl group from propionyl CoA to glyphosate, DTNB detection", "assay_type": "biochemical", "conditions": "1 mM propionyl CoA, 5 mM glyphosate or no glyphosate, 30 minutes", "procedure": "The ability of GAT variants (B6 (SEQ ID NO:7), 0—6D10 (SEQ ID NO:448), 17-15H3 (SEQ ID NO:601), and 20-8H12c (SEQ ID NO:817)) to transfer the propionyl group from propionyl CoA to glyphosate was tested in reaction mixtures containing 5 mM glyphosate or no glyphosate. Propionyl CoA was present at 1 mM. After 30 minutes the reactions were terminated and the presence of free […] was determined by the addition of DTNB."}, "maize plants": {"test_system": "maize plants", "experiment": "Effect of temperature variation on glyphosate tolerance of T1 maize expressing GAT transgenes", "assay_type": "in vivo", "conditions": "cool/cold, warm and hot conditions, 0×, 4×, 6×, 8× glyphosate at V2, scored 5 and 14 days", "procedure": "Maize plants expressing GAT variant transgenes 10—4F2 (SEQ ID NO:203), 17-15H3 (SEQ ID NO:549), and 18-28D9b (SEQ ID NO:814) were produced using the methods described in Example 13. The effect of temperature on glyphosate tolerance was evaluated in T1 plants. The T1 plants were grown in cool/cold (day 14° C., night 8° C.), warm (day 28° C., night 20° C.), and hot (day 37° C., night 20° C.) conditions. T1 plants were sprayed at V2 with four different glyphosate spray treatments (0×, 4×, 6×, and 8×). Plants were scored at 5 and 14 days after treatment for leaf discoloration and plant height comparisons as described in Example 13."}, "[5]": {"assay_type": "physicochemical", "conditions": "buffer, pH 7.2", "procedure": "The half lives of several GAT polypeptides were also measured at 37.5° C. according to the following procedure. GAT polypeptides 401 (SEQ ID NO: 6), 17-15H3 (SEQ ID NO: 601), 20-8H12 (SEQ ID NO: 739), 22-13B12 (SEQ ID NO: 781), 22-15B4 (SEQ ID NO: 946) and 22-18C5 (SEQ ID NO: 795) were incubated in a matrix of 25 mM Hepes, pH 7.2, 10 mM KCl and 10% methanol (“HKM”). At various timepoints, aliquots were withdrawn and assayed in triplicate at 22° C. using the continuous spectrophotometric assay described in Example 7 using saturating concentrations of glyphosate (20 mM for 401, 5 mM for the rest) and AcCoA (167 uM). The standard error at each time point averaged about 2.9%. GAT activity was plotted as a function of incubation time and the data was fitted to a curve for exponential decay (y=e^−x), where y is enzyme activity and x is time in hours, from which half life was calculated."}, "[6]": {"test_system": "Nicotiana benthamiana leaves", "experiment": "Transient expression by Agrobacterium infiltration, GAT protein by SDS-PAGE and blot with antiGAT polyclonal antibody", "assay_type": "in vivo", "conditions": "infiltrated leaves, 3 days, as a percent of total protein", "procedure": "A binary vector with a dMMV-gat-UBQ3 cassette in the T-DNA was transformed into competent Agrobacterium tumefaciens strain C58 cells by electroporation (McCormac et al., Mol. Biotechnol. 9:155-159, 1998). After growth on LB+40 ug/ml kanamycin plates for 2 days at 28° C., colonies were inoculated into LB+40 ug/ml kanamycin liquid medium and shaken overnight at 28° C. The Agrobacterium cells were collected by centrifugation at 4000 g for 10 minutes and then resuspended in a volume of 10 mM MgSO4 equivalent to the initial culture volume. This bacterial suspension was forced or “infiltrated” into the intercellular spaces of Nicotiana benthamiana leaves using a 1 ml plastic syringe (with no needle). By infiltrating 200-300 μl of bacterial suspension into each spot (typically 3-4 cm^2 in infiltrated area), 4 or more spots could be arranged on a single leaf still attached to the plant. In some cases the gat-containing Agrobacterium strain was diluted 5:1 or 10:1 with a second Agrobacterium strain lacking gat prior to infiltration. This dilution step has the effect of reducing the overall expression of the gat gene in the plant cells, thereby preventing saturation and allowing easier visualization of expression differences between variants and constructs. After 3 days the leaf material was ground, extracted in aqueous buffer, and centrifuged. […]"}, "[7]": {"experiment": "GAT activity of native YitI", "assay_type": "biochemical"}, "[8]": {"experiment": "Kinetics of GAT variants modified next to the initiating methionine", "assay_type": "biochemical", "source_text": "A second way to increase plant expression of microbial genes is to increase the G+C content near the initiating methionine residue. Naturally-occurring coding sequences in plants tend to contain two or three G and/or C residues immediately downstream of the ATG initiation codon (Joshi et al. (1997) Plant Mol. Biol. 35:993-1001). Introducing into the gat coding sequence one or two CG-rich codons immediately downstream of the ATG intitiation codon may create a more plant-like coding sequence and thus may enhance its expression in plants."}}, "data": [{"molecule": "25-8H7: further evolved GAT enzyme, SEQ ID NO:907; gene GAT25-8H7/4618 SEQ ID NO:906 (protein, 25-8H7) MIEVKPINAEDTYDLRHRVLRPNQPIEACMFESDLTRSAFHLGGFYGGKLISVASFHQAEHSELQGKKQYQLRGVATLEGYREQKAGSSLVKHAEEILRKRGADMIWCNARTSASGYYRKLGFSEQGEVFDTPPVGPHILMYKRIT", "values": [{"measurement": "kcat/KM Fold imp.", "setting": "[1]", "result": 7031, "unit": "fold"}, {"measurement": "increase in activity with aspartate compared to native GAT polypeptide", "setting": "[2]", "result": 40, "unit": "fold"}, {"measurement": "kcat/KM % of glyph", "setting": "[2]", "result": 0.520, "unit": "%"}, {"measurement": "activity with respect to serine and phosphoserine compared to native GAT polypeptide", "setting": "[3]", "result": "loss of activity"}, {"measurement": "kcat/KM % of glyph", "setting": "[3]", "result": 0.00855, "unit": "%"}]}, {"molecule": "17-15H3: evolved GAT; polypeptide SEQ ID NO:601, transgene SEQ ID NO:549 (protein, D_S00260796_17-15H3) MIEVKPINAEDTYELRHRILRPNQPIEACMFESDLLRGAFHLGGYYGGKLISIASFHQAEHSELQGQKQYQLRGMATLEGYREQKAGSSLIKHAEEILRKRGADLLWCNARTSASGYYKKLGFSEQGEVFDTPPVGPHILMYKRIT", "values": [{"measurement": "glyphosate-dependent hydrolysis of propionyl CoA", "setting": "[4]", "result": "showed glyphosate-dependent hydrolysis of propionyl CoA"}, {"measurement": "kcat/KM Fold imp.", "setting": "[1]", "result": 1086, "unit": "fold"}, {"measurement": "increase in activity with aspartate compared to native GAT polypeptide", "setting": "[2]", "result": 40, "unit": "fold"}, {"measurement": "kcat/KM % of glyph", "setting": "[2]", "result": 3.24, "unit": "%"}, {"measurement": "activity with respect to serine and phosphoserine compared to native GAT polypeptide", "setting": "[3]", "result": "loss of activity"}, {"measurement": "kcat/KM % of glyph", "setting": "[3]", "result": 0.0882, "unit": "%"}, {"measurement": "effect of growth temperature on glyphosate tolerance", "setting": "maize plants", "result": "not adversely effected"}, {"measurement": "Half-life", "setting": "[5]", "result": 45, "unit": "h"}]}, {"molecule": "GAT4621: altered gat coding sequence encoding 25-8H7 M1MA; Ala codon inserted and more frequently utilized codons throughout (nucleic acid, Synthetic nucleic acid sequence GAT4621; CDS (1)...(444): encodes 25-8H7 M1MA (SEQ ID NO:950), Ala codon inserted and more frequently utilized codons throughout) DNA: ATGGCTATTGAGGTTAAGCCTATCAACGCAGAGGATACCTATGACCTTAGGCATAGAGTGCTCAGACCAAACCAGCCTATCGAAGCCTGCATGTTTGAGTCTGACCTTACTAGGAGTGCATTTCACCTTGGTGGATTCTACGGAGGTAAACTGATTTCCGTGGCTTCATTCCACCAAGCTGAGCACTCTGAACTTCAAGGTAAGAAGCAGTACCAGCTTAGAGGTGTGGCTACCTTGGAAGGTTATAGAGAGCAGAAGGCTGGTTCCAGTCTCGTGAAACACGCTGAAGAGATTCTCAGAAAGAGAGGTGCTGACATGATCTGGTGTAATGCCAGGACATCTGCTTCAGGATACTACAGGAAGTTGGGATTCAGTGAGCAAGGAGAGGTGTTCGATACTCCTCCAGTTGGACCTCACATCCTGATGTATAAGAGGATCACATAA", "values": [{"measurement": "level of GAT protein accumulated compared to the unmodified GAT25-8H7/4618 gene", "setting": "[6]", "result": "about two-fold greater"}]}, {"molecule": "GAT4620: altered gat coding sequence encoding 25-8H7 M1MA; Ala codon inserted, first 7 codons more frequently utilized, Ser 62 and Arg 111 changed (nucleic acid, Synthetic nucleic acid sequence GAT4620; CDS (1)...(444): encodes 25-8H7 M1MA (SEQ ID NO:950), Ala codon inserted, first 7 codons more frequently utilized, Ser 62 and Arg 111 changed) DNA: ATGGCTATTGAGGTTAAACCTATTAACGCAGAGGATACCTATGACCTAAGGCATAGAGTCCTCAGACCAAACCAGCCGATAGAAGCGTGTATGTTTGAAAGCGATTTAACGCGTAGTGCATTTCACTTAGGCGGCTTCTACGGGGGCAAACTGATTTCCGTCGCTTCATTCCACCAGGCCGAGCACTCTGAACTTCAAGGCAAGAAACAGTACCAGCTTCGAGGTGTGGCTACCTTGGAAGGTTATCGTGAGCAGAAGGCGGGTTCCAGTCTAGTTAAACACGCTGAAGAAATTCTACGTAAGAGGGGGGCGGACATGATTTGGTGTAATGCGAGGACATCTGCCTCAGGCTACTACAGAAAGTTAGGCTTCAGCGAGCAGGGAGAGGTATTCGACACGCCGCCAGTAGGACCTCACATCCTGATGTATAAAAGGATCACATAA", "values": [{"measurement": "level of GAT protein accumulated compared to the unmodified GAT25-8H7/4618 gene", "setting": "[6]", "result": "comparable"}]}, {"molecule": "YitI: most closely related sequence available in Genbank, yitI from Bacillus subtilis (protein, UniProt O06744 1-149, looked up) Uncharacterized …: MLEVKTISVEDTYEIRHRILRPHQSIEQCKYKEDHAEGSFHLGVFYDGTLISIASFSPQSQPLLTEASAYRLRGMATLEGYRDQKAGSTLIKHAEHKLAESGVQAVWCNARHHVKGYYAKLGWKELGEPFDIPGIGNHIVMYKTLRTSR", "values": [{"measurement": "GAT activity", "setting": "[7]", "result": "detectable GAT activity"}]}, {"molecule": "22-15B4 M1MAA: 22-15B4 with two alanines inserted between Met1 and Ile2, SEQ ID NO:948 (protein, 22-15B4 M1MAA) MAAIEVKPINAEDTYDLRHRVLRPNQPIEACMFDSDLMRSAFHLGGFYGGKLISVASFHQAEHTELQGQKQYQLRGVATLEGYREQKAGSSLVKHAEEILRKRGVDLLWCNARTSASGYYKKLGFSEQGEVFDTPPVGPHILMYKRIT", "values": [{"measurement": "kinetics compared to the unmodified enzyme", "setting": "[8]", "result": "reduced kcat"}]}, {"molecule": "22-15B4 M1MA: 22-15B4 with one alanine inserted between Met1 and Ile2, SEQ ID NO:946 (protein, 22-15B4 M1MA) MAIEVKPINAEDTYDLRHRVLRPNQPIEACMFDSDLMRSAFHLGGFYGGKLISVASFHQAEHTELQGQKQYQLRGVATLEGYREQKAGSSLVKHAEEILRKRGVDLLWCNARTSASGYYKKLGFSEQGEVFDTPPVGPHILMYKRIT", "values": [{"measurement": "kinetics compared to the unmodified enzyme", "setting": "[8]", "result": "essentially unaltered kinetics"}]}]}
